Assay results taken from patent US20250236673A1 (Ablynx, published 2025).
Several values for one entry are separate records, joined by “and”; a condition that tells them apart may be missing. Equal entries are not always repeated.

What was measured:
soluble human TNFα = soluble human TNFα (human, UniProt P01375 77-233); test: cell-based or functional assay
[1] = biological target: T1, recombinant human CEACAM5 (human, UniProt P06731 35-685, limits assumed); test: SPR on CEACAM5 (Example 2; method not restated, as Example 1)
T1 construct: Immobilised by amine coupling on a CM5 chip
T1 sequence (looked up): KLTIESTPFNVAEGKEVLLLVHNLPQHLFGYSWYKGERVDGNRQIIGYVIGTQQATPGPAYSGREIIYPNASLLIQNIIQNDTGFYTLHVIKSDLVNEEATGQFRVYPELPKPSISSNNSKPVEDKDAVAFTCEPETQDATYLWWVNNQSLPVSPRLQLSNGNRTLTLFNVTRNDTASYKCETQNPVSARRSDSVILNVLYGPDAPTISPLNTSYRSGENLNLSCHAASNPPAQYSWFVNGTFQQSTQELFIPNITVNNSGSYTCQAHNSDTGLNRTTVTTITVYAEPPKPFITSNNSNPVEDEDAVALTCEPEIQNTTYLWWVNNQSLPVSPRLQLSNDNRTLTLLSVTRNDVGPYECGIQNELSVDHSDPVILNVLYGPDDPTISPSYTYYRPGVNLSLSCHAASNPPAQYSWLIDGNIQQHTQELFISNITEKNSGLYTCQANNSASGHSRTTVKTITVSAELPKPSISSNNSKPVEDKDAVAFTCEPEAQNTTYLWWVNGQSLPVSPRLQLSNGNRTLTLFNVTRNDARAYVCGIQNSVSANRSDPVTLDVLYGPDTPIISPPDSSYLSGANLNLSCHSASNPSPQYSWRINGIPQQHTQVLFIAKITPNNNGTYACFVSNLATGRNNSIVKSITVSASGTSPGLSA

Chain of soluble human TNFα (P01375 77-233 limits assumed): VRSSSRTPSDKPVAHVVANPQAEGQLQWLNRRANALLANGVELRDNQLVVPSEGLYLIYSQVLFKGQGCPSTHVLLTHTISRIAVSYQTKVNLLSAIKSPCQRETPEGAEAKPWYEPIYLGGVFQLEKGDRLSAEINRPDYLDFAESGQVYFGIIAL

B1: T031200256 (VHH)
VHH: DVQLVESGGGVVQPGGSLRLSCTASGFTFSTADMGWFRQAPGKGREFVARISGIDGTTYYDEPVKGRFTISRDKSKNTVYLQMNSLKPEDTALYYCRSPRYADQWSAYDYWGQGTLVTVSS
IC50, inhibition of human TNFα-induced NFkB activation (HEK293_NFkB-NLucP Nano luciferase reporter) (soluble human TNFα): 4.3e-11 M (inferred; column head prints 'Average of ka (1/Ms)')

B2: T031200261 (VHH)
VHH: DVQLVESGGGVVQPGGSLKLSCTASGFTFSTADMGWFRQAPGKGREFVARISGIDGTTYYDEPVKGRFTISKDKSKNTVYLQMNSLKPEDTALYYCRSPRYADQWSAYDYWGKGTLVTVSS
IC50, inhibition of human TNFα-induced NFkB activation (HEK293_NFkB-NLucP Nano luciferase reporter) (soluble human TNFα): 1.91e-10 M (inferred; column head prints 'Average of ka (1/Ms)')

B3: T031200262 (VHH)
VHH: DVQLVESGGGVVQPGGSLKLSCTASGFTFSTADMGWFRQAPGKGKEFVARISGIDGTTYYDEPVKGRFTISRDKSKNTVYLQMNSLKPEDTALYYCRSPRYADQWSAYDYWGKGTLVTVSS
IC50, inhibition of human TNFα-induced NFkB activation (HEK293_NFkB-NLucP Nano luciferase reporter) (soluble human TNFα): 6.43e-11 M (inferred; column head prints 'Average of ka (1/Ms)')

B4: T031200263 (VHH)
VHH: DVQLVESGGGVVQPGGSLKLSCTASGFTFSTADMGWFRQAPGKGKEFVARISGIDGTTYYDEPVKGRFTISKDKSKNTVYLQMNSLKPEDTALYYCRSPRYADQWSAYDYWGKGTLVTVSS
IC50, inhibition of human TNFα-induced NFkB activation (HEK293_NFkB-NLucP Nano luciferase reporter) (soluble human TNFα): 1.92e-10 M (inferred; column head prints 'Average of ka (1/Ms)')

B5: A016600058 (VHH)
VHH: DVQLVESGGGVVQPGGSLRLSCTASGFTFSTADMGWFRQAPGKGREFVARISGIDGTTYYDEPVKGRFTISRDNSKNTVYLQMNSLRPEDTALYYCRSPRYADQWSAYDYWGQGTLVTVSS
IC50, inhibition of human TNFα-induced NFkB activation (HEK293_NFkB-NLucP Nano luciferase reporter) (soluble human TNFα): 3.86e-11 M (inferred; column head prints 'Average of ka (1/Ms)') and 2.97e-11 M (inferred; column head prints 'Average of ka (1/Ms)')

B6: T031200257 (VHH)
VHH: DVQLVESGGGVVQPGGSLKLSCTASGFTFSTADMGWFRQAPGKGREFVARISGIDGTTYYDEPVKGRFTISRDKSKNTVYLQMNSLKPEDTALYYCRSPRYADQWSAYDYWGQGTLVTVSS
IC50, inhibition of human TNFα-induced NFkB activation (HEK293_NFkB-NLucP Nano luciferase reporter) (soluble human TNFα): 4.93e-11 M (inferred; column head prints 'Average of ka (1/Ms)')

B7: T039400047 (VHH)
VHH: EVQLVESGGGVVQPGGSLRLSCAASGLTFSTYTMGWFRQAPGREREFVAAIIWSGSNTYYADSVKGRFTISRDNARNTVYLQMNSLRPEDTALYYCAAQHFGPIGLTTRGYHYWGQGTLVTVSS
notes: Single lysine at 64; also called HIS6-ENLYFQS-5GS-A0315007E07(K43R, K75R)
Kd [1]: 915 pM
koff [1]: 0.000451 s⁻¹
kon [1]: 493000 M⁻¹ s⁻¹

B8: T039400054 (VHH)
VHH: EVQLVESGGGVVQPGGSLRLSCAASGLTFSTYTMGWFRQAPGREREFVAAIIWSGSNTYYADSVRGRFTISRDNARNTVYLQMNSLRPEDTALYYCAAQHFGPIGLTTRGYHYWGQGTLVTVSS
notes: Single lysine at the C-terminus; also called HIS6-ENLYFQS-5GS-A0315007E07(K43R, K64R, K75R,)-K
Kd [1]: 1010 pM
koff [1]: 0.000526 s⁻¹
kon [1]: 522000 M⁻¹ s⁻¹

B9: T039400048 (VHH)
VHH: EVQLVESGGGVVQPGGSLRLSCAASGLTFSTYTMGWFRQAPGREKEFVAAIIWSGSNTYYADSVRGRFTISRDNARNTVYLQMNSLRPEDTALYYCAAQHFGPIGLTTRGYHYWGQGTLVTVSS
notes: Single lysine at 45; also called HIS6-ENLYFQS-5GS-A0315007E07(K43R, R45K, K64R, K75R)
Kd [1]: 874 pM
koff [1]: 0.000504 s⁻¹
kon [1]: 577000 M⁻¹ s⁻¹

B10: T039400049 (VHH)
VHH: EVQLVESGGGVVQPGGSLRLSCAASGLTFSTYTMGWFRQAPGREREFVAAIIWSGSNTYYADSVRGRFTISRDNARNTVYLQMNSLRPEDTALYYCAAQHFGPIGLTTRGYHYWGKGTLVTVSS
notes: also called HIS6-ENLYFQS-5GS-A0315007E07(K43R, K64R, K75R, Q105K)
Kd [1]: 914 pM
koff [1]: 0.000536 s⁻¹
kon [1]: 586000 M⁻¹ s⁻¹

B11: T039400053 (VHH)
VHH: EVQLVESGGGVVQPGGSLRLSCAASGLTFSTYTMGWFRQAPGKEREFVAAIIWSGSNTYYADSVRGRFTISRDNARNTVYLQMNSLRPEDTALYYCAAQHFGPIGLTTRGYHYWGQGTLVTVSS
notes: Single lysine at 43; 24 used; also called HIS6-ENLYFQS-5GS-A0315007E07(K64R, K75R,)
Kd [1]: 943 pM
koff [1]: 0.000516 s⁻¹
kon [1]: 547000 M⁻¹ s⁻¹

B12: T039400050 (VHH)
VHH: EVQLVESGGGVVQPGGSLRLSCAASGLTFSTYTMGWFRQAPGREREFVAAIIWSGSNTYYADSVRGRFTISRDNARNTVYLQMNSLRPEDTALYYCAAQHFGPIGLTTRGYHYWGQGTLVTVSS
notes: No lysine; also called HIS6-ENLYFQS-5GS-A0315007E07(K43R, K64R, K75R)
Kd [1]: 952 pM
koff [1]: 0.000526 s⁻¹
kon [1]: 553000 M⁻¹ s⁻¹

B13: T039400052 (VHH)
VHH: EVQLVESGGGVVQPGGSLRLSCAASGLTFSTYTMGWFRQAPGREREFVAAIIWSGSNTYYADSVRGRFTISRDKARNTVYLQMNSLRPEDTALYYCAAQHFGPIGLTTRGYHYWGQGTLVTVSS
notes: Single lysine at 73; also called HIS6-ENLYFQS-5GS-A0315007E07K43R, K64R, N73K, K75R
Kd [1]: 1430 pM
koff [1]: 0.000633 s⁻¹
kon [1]: 441000 M⁻¹ s⁻¹
